Test results taken from paper PMC3867821.

Molecular target: KLF4 (UniProt Q60793)
Test: anti-HA co-IP, STAT3 blot
Conditions: reference: wild-type FLAG-STAT3; sites Y705

Substance: STAT3 (from UniProt P42227) Y705F
- binding against the reference: lost
